From PMC13045352, “Mapping Epidermal Growth Factor Receptor‑1 Sorting Domains in Endosomes with a Calibrated Three-Dimensional Expansion Microscopy Toolkit” (ACS Nano, 2026)

Biological target: the molecule itself
Assay: negative-stain transmission electron microscopy; purified nanocages on glow-discharged carbon film-coated grids, stained with uranyl formate; particle widths measured (mean 28.3 nm)

B1: I3-01_60eGFP monomer of the self-assembling 60-subunit nanocage (one N-terminal eGFP per subunit) (other)
chain: GSGGSGGSGGSGGSGKIEELFKKHKIVAVLRANSVEEAKKKALAVFLGGVHLIEITFTVPDADTVIKELSFLKEMGAIIGAGTVTSVEQCRKAVESGAEFIVSPHLDEEISQFCKEKGVFYMPGVMTPTELVKAMKLGHTILKLFPGEVVGPQFVKAMKGPFPNVKFVPTGGVNLDNVCEWFKAGVLAVGVGSALVKGTPVEVAEKAKAFVEKIRGCTEGSGSGSGSGS
notes: linker between the vector's eGFP and I3-01; begins with the BamHI site GGATCC; I3-01 designed nanocage subunit (David Baker's laboratory); C-terminal linker before the stop codon; Printed molecular weight of the monomer 55.72 kDa; also called 60mer decahedral nanocage; source: HeLa cells, transfected, purified from lysate (centrifugation, 1 MDa spin concentrator); also expressed in RPE-1 cells; …
- binding result: binds
